Protein stability index data for 36 sequences are collected here from the supplement of paper PMC10567573.

± gives the standard deviation.

This data set is described as follows: protein stability index of a GFP-peptide fusion (GPS, HEK-293T) (PSI 1-6); higher = more stable. The conditions noted are these: c terminus: a fixed tail appended.
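Further: 24-mer peptide tiles fused after GFP, lentivirally expressed, FACS-sorted into six equal bins by GFP/DsRed ratio, decoded by Illumina sequencing, PSI is the read-weighted mean bin number.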

As to LGPCVVGYGIYYFIYSTWKGRTIY [SAT2], the protein stability index was determined as 2.97 ± 0.28 (treatment: DMSO) and 2.97 ± 0.51 (treatment: MLN4924 1 uM, 8 h).
For FECAWNGSDSVIMTGAYNNFFRMF [PPP2R2C], in that order: 2.5 ± 0.35 and 2.35 ± 0.6.
For PEGGLEEPDALDDSLTSLQWLQEF [FOXJ1], in that order: 4.64 ± 0.17 and 4.53 ± 0.3.
Consider GLGNTWPGASGSAQSLDRLGIMGA [ATP23], for which the protein stability index stood at 3.3 ± 0.24 (treatment: DMSO) and 3.48 ± 0.3 (treatment: MLN4924 1 uM, 8 h).
Turning to YKSWLKNLAKEQLSRENIQSSLLE [PPEF2], the protein stability index was found to be 2.72 ± 0.24 (treatment: DMSO) and 2.86 ± 0.13 (treatment: MLN4924 1 uM, 8 h).
With LKPLCGCHSFAAAADGPTVCCNPY [SMAD6], the protein stability index was 2.75 ± 0.5 (treatment: DMSO) and 2.92 ± 0.39 (treatment: MLN4924 1 uM, 8 h).
For FGSLPSPKELSSFSFSMKGHEKTA [DLC1], in that order: 3.53 ± 0.19 and 3.74 ± 0.25.
Consider DGTSQSTGGSADLFGGFADFGSAA [CLINT1], for which the protein stability index is 4.71 ± 0.25 (treatment: DMSO) and 4.46 ± 0.27 (treatment: MLN4924 1 uM, 8 h).
For HKADSIQGTARTLSPVLESPRDLQ [TNXB], in that order: 4.75 ± 0.18 and 4.9 ± 0.14.
For LGGEQAEEKAFESVIEPVQESSFR [MIA2], in that order: 5.16 ± 0.54 and 5.44 ± 0.1.
Consider SQEEAQGLPSSELDAVENQLKWAS [ZNF24], for which the protein stability index runs as follows: (treatment: DMSO) 5.32 ± 0.2; (treatment: MLN4924 1 uM, 8 h) 5.08 ± 0.38.
The like results for VVIFQREPESKNAPHSQGEYDVYS [PPP2R2C] were, in that order, 2.5 ± 0.23 and 2.85 ± 0.27.
Regarding CTKTCGVGVRMRDVKCYQGTDIVR [ADAMTSL2], the protein stability index runs as follows: (treatment: DMSO) 3.27 ± 0.4; (treatment: MLN4924 1 uM, 8 h) 2.65 ± 0.33.
For VNEFSLKGVDFQKFCMNGAALCAL [ETS1], in that order: 2.32 ± 0.76 and 2.3 ± 0.033.
For CVKLCTGHEYAAKIINTKKLSARD [CAMK2B], in that order: 3.14 ± 0.18 and 3.18 ± 0.28.
With VAVCPIPAAGLDVTQPCGDCGTIQ [HDAC6], the protein stability index was determined as 3.46 ± 0.24 (treatment: DMSO) and 3.81 ± 0.41 (treatment: MLN4924 1 uM, 8 h).
Turning to SCYQVYCGRYINGHMLQHHGNSGH [HDAC6], the protein stability index stood at 2.49 ± 0.54 (treatment: DMSO) and 2.21 ± 0.16 (treatment: MLN4924 1 uM, 8 h).
For HGISIPEPEDMETLEEKFSDVHPV [CDKL4], in that order: 5.29 ± 0.2 and 4.98 ± 0.28.
For FSGTDWMLEKMDLKEFDLDALLGI [ATF4], in that order: 2.33 ± 0.11 and 2.5 ± 0.49.
The like results for FTSGFNAAALDYEADGSTNNGIFQ [SPACA3] were, in that order, 2.67 ± 0.53 and 3.48 ± 0.74.
Consider RRRVPVRNLGKVVHYAKVQLRFQH [PLEKHN1], for which the protein stability index came out at 2.35 ± 0.39 (treatment: DMSO) and 2.29 ± 0.25 (treatment: MLN4924 1 uM, 8 h).
For GDRMFYRDWWNSTSFSNYYRTWNV [SOAT2], in that order: 2.19 ± 0.16 and 2.28 ± 0.39.
For HITKTVKGGISETRIEKRIVITGD [EPB41L3], in that order: 3.85 ± 0.28 and 3.96 ± 0.12.
The like results for SADVVSPSGHSDAQTLAMMLQEQL [PPFIA4] were, in that order, 4.54 ± 0.32 and 4.97 ± 0.35.
As for ASSPKGTIENILDNDPRDLIGDFS [CDC25A], the protein stability index reads like this: (treatment: DMSO) 4.91 ± 0.21; (treatment: MLN4924 1 uM, 8 h) 4.82 ± 0.14.
The like results for SARQGELQKVLLMLVDGIDPNFKM [EHMT1] were, in that order, 1.98 ± 0.23 and 2.04 ± 0.29.
The like results for HMEEEVEDFLLKKPIVPTDGKRVI [CDC25A] were, in that order, 4.68 ± 0.096 and 4.84 ± 0.24.
The like results for RLDLAAVTLRRGLRSRASRCRPRS [FAM189A2] were, in that order, 3.7 ± 0.15 and 3.89 ± 0.32.
RRWHKSRLLQASGGGLTGVSGSHF [PCDHGA10]: the protein stability index is, setting by setting: (treatment: DMSO) 2.67 ± 0.21; (treatment: MLN4924 1 uM, 8 h) 2.83 ± 0.16.
The like results for ITWFKDFLPVDTSNNNGRIKQLRS [PTPRD] were, in that order, 2.47 ± 0.52 and 2.96 ± 0.3.
Take PEGYNLKDEEGRLRDPATITTLRV [PPP2R2B]: the protein stability index (treatment: DMSO) stood at 4.54 ± 0.062 and the protein stability index (treatment: MLN4924 1 uM, 8 h) came to 4.37 ± 0.29.
Take ALSLIRFPLMTIEEFAAGPAQSGI [BTBD1]: the protein stability index (treatment: DMSO) worked out at 2.09 ± 0.35 and the protein stability index (treatment: MLN4924 1 uM, 8 h) came to 2.04 ± 0.13.
For SEHLKQRREVAKTVFCLVVIFALC [EDNRA], in that order: 2.58 ± 1.3 and 3.31 ± 0.89.
For APFTDEQLYMEQFTKANFWYQPSF [CARM1], in that order: 2.31 ± 0.42 and 2.21 ± 0.26.
For LHYFPFFLMGRVLYFHHYFPAMLF [POMT2], in that order: 3.09 ± 0.93 and 2.58 ± 0.52.
Turning to RGKKLMVLTEPILIETYTGLMSFI [TPRG1], the protein stability index by setting is: (treatment: DMSO) 2.95 ± 0.34; (treatment: MLN4924 1 uM, 8 h) 2.6 ± 0.48.
